From patent publication US20240158497A1 (published 2024)

T1: human gp130 expressed endogenously on IMR-32/Stat3-luc cells (human, UniProt P40189 23-918)
T1 construct: Endogenous gp130 of the human neuroblastoma line IMR-32
T1 sequence: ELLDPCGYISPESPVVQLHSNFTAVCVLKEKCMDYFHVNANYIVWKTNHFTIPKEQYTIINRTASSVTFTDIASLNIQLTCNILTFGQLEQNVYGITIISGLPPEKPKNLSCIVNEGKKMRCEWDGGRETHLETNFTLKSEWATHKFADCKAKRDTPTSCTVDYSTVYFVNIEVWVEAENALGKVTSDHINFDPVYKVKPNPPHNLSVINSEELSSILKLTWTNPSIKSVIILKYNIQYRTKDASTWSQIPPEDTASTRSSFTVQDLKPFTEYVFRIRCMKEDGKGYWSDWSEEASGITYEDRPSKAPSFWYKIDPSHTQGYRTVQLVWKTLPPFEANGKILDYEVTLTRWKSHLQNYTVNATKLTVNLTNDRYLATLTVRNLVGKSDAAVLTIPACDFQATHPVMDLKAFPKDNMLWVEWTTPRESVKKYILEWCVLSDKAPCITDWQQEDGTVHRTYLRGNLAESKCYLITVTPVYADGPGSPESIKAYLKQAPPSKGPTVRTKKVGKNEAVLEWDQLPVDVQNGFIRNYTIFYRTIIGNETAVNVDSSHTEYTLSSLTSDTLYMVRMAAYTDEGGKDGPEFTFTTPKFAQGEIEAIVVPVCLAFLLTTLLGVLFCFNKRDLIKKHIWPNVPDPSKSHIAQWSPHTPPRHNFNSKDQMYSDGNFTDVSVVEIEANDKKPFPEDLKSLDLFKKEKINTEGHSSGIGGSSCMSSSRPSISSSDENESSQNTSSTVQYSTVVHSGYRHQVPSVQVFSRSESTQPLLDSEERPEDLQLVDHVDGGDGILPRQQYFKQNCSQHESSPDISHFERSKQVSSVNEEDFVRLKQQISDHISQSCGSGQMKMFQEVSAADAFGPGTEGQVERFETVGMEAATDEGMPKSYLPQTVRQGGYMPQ

T2: full length (FL) human gp130 over-expressed on HEK293/Stat3-luc/gp130-2X Sort cells (human, UniProt P40189 23-918)
T2 sequence: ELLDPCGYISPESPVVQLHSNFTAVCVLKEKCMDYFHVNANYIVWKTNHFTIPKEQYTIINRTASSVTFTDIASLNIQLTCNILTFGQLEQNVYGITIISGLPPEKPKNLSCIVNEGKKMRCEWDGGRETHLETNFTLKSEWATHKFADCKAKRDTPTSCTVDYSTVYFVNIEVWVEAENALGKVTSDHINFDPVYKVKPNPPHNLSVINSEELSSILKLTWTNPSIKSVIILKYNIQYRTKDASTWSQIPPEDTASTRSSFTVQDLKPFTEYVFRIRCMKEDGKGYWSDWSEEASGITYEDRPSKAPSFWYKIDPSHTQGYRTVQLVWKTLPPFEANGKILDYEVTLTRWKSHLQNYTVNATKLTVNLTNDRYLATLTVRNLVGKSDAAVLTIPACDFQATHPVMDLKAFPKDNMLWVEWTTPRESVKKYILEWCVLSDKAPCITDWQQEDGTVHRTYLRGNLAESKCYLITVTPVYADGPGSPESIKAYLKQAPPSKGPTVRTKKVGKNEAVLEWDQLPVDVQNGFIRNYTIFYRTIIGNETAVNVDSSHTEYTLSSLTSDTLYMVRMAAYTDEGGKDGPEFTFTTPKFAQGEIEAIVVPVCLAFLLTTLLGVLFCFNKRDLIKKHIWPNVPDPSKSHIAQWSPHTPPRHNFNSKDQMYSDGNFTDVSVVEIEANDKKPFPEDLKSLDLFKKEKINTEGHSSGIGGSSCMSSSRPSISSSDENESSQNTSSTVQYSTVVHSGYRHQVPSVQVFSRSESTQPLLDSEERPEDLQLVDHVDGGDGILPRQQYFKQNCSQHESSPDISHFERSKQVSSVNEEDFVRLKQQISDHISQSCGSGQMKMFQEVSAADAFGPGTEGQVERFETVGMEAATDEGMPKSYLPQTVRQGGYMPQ

B1: MAb16623 (antibody, V domains shown)
VH: EVQLVESGGGLVQPGGSLRLSCAASGLTFSSYEMNWVRQAPGKGLEWVSHISSAGSTKYYADSVKGRFTISRDNAKNSLFLQMNSLRAEDTAIYYCAGYNYAYYYFGVDVWGQGTTVTVSS
VL: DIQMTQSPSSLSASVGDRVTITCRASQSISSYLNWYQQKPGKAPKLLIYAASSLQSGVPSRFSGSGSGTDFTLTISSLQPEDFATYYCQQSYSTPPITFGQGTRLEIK
notes: hIgG4 isotype control used
B2: MAb16666 (antibody, V domains shown)
VH: EVQLVESGGGLVQSGGSLRLSCAASGFTFSRYEMNWVRQAPGKGLEWVAYISNTGTTRDYSDSVKGRFTISRDNAKNSLYLQMSSLRVEDTAVYYCVREKFSGTSDWFDPWGQGTLVTVSS
VL: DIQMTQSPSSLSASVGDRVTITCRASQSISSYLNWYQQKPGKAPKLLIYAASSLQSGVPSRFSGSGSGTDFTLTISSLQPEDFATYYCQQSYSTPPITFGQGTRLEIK
notes: hIgG4 isotype control used
B3: MAb16656 (antibody, V domains shown)
VH: EVQLVESGGGLVQPGRSLRLSCAASGFTLDDFAMHWVRQAPGKGLEWVSGISWNSGNIGYADSVKGRFTISRDNARNSLYLQMNSLRAEDTALYYCTSGYYLYYAMDVWGQGTTVTVSS
VL: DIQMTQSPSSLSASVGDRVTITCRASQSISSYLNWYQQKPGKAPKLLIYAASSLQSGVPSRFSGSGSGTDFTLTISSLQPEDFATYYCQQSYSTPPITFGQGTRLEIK
notes: hIgG4 isotype control used
B4: MAb16665 (antibody, V domains shown)
VH: QVQLVESGGGVVQPGRSLRLACAASGFTFRSYGMHWVRQAPGKGLEWVAVIWYDGSNKYYTDSVKGRFTISRDNSKNTLYLQMNSLRAEDTAMYYCAIDKWATVTTYLFDYWGQGTLVTVSS
VL: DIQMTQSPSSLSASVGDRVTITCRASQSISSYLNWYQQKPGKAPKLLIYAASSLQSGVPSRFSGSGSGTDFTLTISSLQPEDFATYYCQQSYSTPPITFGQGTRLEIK
notes: hIgG4 isotype control used
B5: MAb16664 (antibody, V domains shown)
VH: QVQLVQSGTEVKKPGSSVKVSCKASGGTFSTYPINWVRQAPGQGLEWMGGIIPIFGTASYAQKFQGRVAITTDESTSTAYMELNSLRSEDTAVYYCARERPNWGSNDYWGQGTLVTVSS
VL: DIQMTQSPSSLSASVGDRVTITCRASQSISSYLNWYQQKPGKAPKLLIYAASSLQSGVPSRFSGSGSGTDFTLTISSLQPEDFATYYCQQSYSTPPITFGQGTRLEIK
notes: hIgG4 isotype control used
B6: MAb16682 (antibody, V domains shown)
VH: EVQLVESGGGLVQPGGSLRLSCAASGFTFSTYWMNWVRQAPGKGLEWVANIKEDGSEKYYVDSVKGRFTISRDNAKNSLYLQMNSLRAEDTAVYYCAREGFGVVTYIWGQGTMVTVSS
VL: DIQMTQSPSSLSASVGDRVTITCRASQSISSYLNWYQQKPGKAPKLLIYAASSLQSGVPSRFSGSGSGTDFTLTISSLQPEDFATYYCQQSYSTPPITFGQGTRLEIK
notes: hIgG4 isotype control used
B7: MAb16669 (antibody, V domains shown)
VH: EVQLVESGGGLVQPGGSLRLSCAASGFTFSSYAMNWVRQAPGKGLEWVSAISGSGDSTYYTDSVKGRFTISRDNSKNTLYLQMNTLRAEDTAVYYCAKEEIVMLVGATPGWFDPWGQGTLVTVSS
VL: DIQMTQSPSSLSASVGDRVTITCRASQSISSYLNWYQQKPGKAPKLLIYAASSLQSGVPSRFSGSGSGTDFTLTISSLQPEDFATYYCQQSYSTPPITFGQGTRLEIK
notes: hIgG4 isotype control used
B8: MAb16676 (antibody, V domains shown)
VH: QVQLVQSGAEVMKPGASVKVSCRASGYTFSSYDINWVRQAPGQGLEWMGWISTATGNTNYPQKVQGRVTMTTDTSTNTAYMELRSLRSDDTAVYYCTREGNSKGWLDPWGQGTLVTVSS
VL: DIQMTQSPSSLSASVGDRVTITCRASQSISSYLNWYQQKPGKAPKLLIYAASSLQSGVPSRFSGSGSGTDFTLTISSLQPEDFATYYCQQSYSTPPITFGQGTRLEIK
notes: hIgG4 isotype control used
B9: MAb16618 (antibody, V domains shown)
VH: QVQLQESGPGLVKPSETLSLTCTVSGGSISNYYWTWIRQPPGKGLEWIGHISNSGTTNYNPSLKSRVTISVDTSKNQFSLKLTSVTAADTAVYYCARLPLGIAAVDTDYYYYFGMDVWGQGTTVTVSS
VL: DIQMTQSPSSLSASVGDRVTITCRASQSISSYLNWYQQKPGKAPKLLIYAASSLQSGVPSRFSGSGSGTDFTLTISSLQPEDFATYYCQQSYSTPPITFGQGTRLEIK
notes: hIgG4 isotype control used
B10: MAb16662 (antibody, V domains shown)
VH: EVQLVESGGGLVQPGGSLRLSCTASGFTFSNYAIFWVRQAPGKGLEYVSGISNNGVTKYYADSVRDRFTISRDNSRNTVSIQMDSLRTEDMAVYYCARENWGSDDGFDIWGQGTMVTVSS
VL: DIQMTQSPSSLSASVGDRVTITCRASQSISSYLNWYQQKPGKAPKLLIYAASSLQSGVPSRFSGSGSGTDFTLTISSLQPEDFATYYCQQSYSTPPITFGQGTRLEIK
notes: hIgG4 isotype control used
B11: MAb16673 (antibody, V domains shown)
VH: EVQLVQSGAEVKKPGESLKISCKGSGYSFTSYWIDWVRQMPGKGLEWMGIIYPDDSDTRYSPSFQGQVTMSVDKSISTAYLQWSSLKASDTAIYYCARHERGIVEAGTDYYYYYGMDVWGQGTTVTVSS
VL: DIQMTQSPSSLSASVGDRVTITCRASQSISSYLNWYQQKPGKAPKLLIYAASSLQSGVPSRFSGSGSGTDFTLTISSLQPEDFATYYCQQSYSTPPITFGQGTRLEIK
notes: hIgG4 isotype control used
B12: MAb16622 (antibody, V domains shown)
VH: EVQLVESGGGVVRPGGSLRLSCTASGFTFDDYGMSWVRQAPGKGLEWVSGINWNGGRTEYADAVKGRFIISRDNAKNSLYLQMNSLRAEDTALYFCARTELRWDYWGQGTLVTVSS
VL: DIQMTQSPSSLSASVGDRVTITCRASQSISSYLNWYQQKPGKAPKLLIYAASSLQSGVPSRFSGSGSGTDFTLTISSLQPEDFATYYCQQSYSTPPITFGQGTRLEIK
notes: hIgG4 isotype control used
B13: MAb16614 (antibody, V domains shown)
VH: QVQLVESGGGVVQPGGSLRLSCAASGFTFSTYDIHWVRQAPGKGLEWVAVISFDGSNRNYGDSVKGRFTISRDNSDNTLFLEMNNLRFEDTAVYYCAKEGYGVDFQHWGQGTLVTVSS
VL: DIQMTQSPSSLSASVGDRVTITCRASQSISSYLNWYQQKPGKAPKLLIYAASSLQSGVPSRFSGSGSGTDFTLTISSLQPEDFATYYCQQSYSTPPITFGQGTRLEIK
notes: hIgG4 isotype control used
B14: MAb16683 (antibody, V domains shown)
VH: QVQLVESGGGLVKPGGSLRLSCAASGFTFSDYYMTWIRQTPGKGLDWVSYISSSGTNKYNADSVKGRFTISRDNAKNSLYLQMNSLRAEDTAVYYCVRDPPWGMDVWGQGTTVTVSS
VL: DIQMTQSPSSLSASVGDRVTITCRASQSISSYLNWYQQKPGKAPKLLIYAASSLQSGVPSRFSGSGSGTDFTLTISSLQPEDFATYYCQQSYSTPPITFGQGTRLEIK
notes: hIgG4 isotype control used
B15: MAb16637 (antibody, V domains shown)
VH: QVQLVQSGAEVKKPGASVKVSCKASGYTFTSLGISWVRQAPGQGLEWMGWISAYSGNRDYAQKFQGRVTMTTDTSTSTAYMELRSLRSDDTAVYYCARSLRFDYWGQGTLVTVSS
VL: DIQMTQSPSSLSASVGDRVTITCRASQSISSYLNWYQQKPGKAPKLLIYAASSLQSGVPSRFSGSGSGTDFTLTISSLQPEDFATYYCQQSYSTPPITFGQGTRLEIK
notes: hIgG4 isotype control used
B16: MAb16659 (antibody, V domains shown)
VH: QVQLVQSGPEVKKPGSSVKVSCKASGGTIDRNEITWVRQAPGQGLEWMGVIIPILGEAHYERKFQGRLTITMDESTSTAYMELSNLRSEDTAVYYCARERAARGYLDYWGQGTLVTVSS
VL: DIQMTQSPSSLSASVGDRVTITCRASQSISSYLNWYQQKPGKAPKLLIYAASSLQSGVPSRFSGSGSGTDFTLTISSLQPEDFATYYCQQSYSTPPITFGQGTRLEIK
notes: hIgG4 isotype control used
B17: MAb16636 (antibody, V domains shown)
VH: QLQLQESGPGLVKPSETLSLICTVSGGSISSNNYYWGWIRQPPGKGLEWIGNLYGSGSTYYNPSLKSRVTISVDTSKNQFSLKLSFVTAADTAVYHCARWDTNGGAFDIWGQGTMVTVSS
VL: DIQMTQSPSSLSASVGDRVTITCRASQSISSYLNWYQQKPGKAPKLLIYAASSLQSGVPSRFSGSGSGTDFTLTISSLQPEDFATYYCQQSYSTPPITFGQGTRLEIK
notes: hIgG4 isotype control used

Assays:
[1] = biological target: T1, human gp130 expressed endogenously on …; assay: FACS, 10 nM Ab pre-bound to 1 uM hGP130.mmh, IMR-32/Stat3-luc cells
From the text: (§1) In order to assess cell binding by anti-GP130 antibodies of the invention two cell lines were generated. One cell line generated was HEK293 cells stably over-expressing full length (FL) human gp130 (amino acids 1-918 of accession #P40189 with leucine at position 2 changed to valine, a natural variant) along with a luciferase reporter (Stat3-luciferase, Stat3-luc, SA Bioscience, #CLS-6028L). The cells were sorted twice using flow cytometry for high expression of gp130. It is known hereafter as HEK293/Stat3-luc/gp130-2 X Sort. IMR-32 cells (human Neuroblastoma, ATCC), were also evaluated for cell binding as these cells express gp130 endogenously and were used for bioassays. The cells used for binding were generated to stably express a luciferase reporter (Stat3-luciferase, Stat3-luc, SA Bioscience, #CLS-6028L), and are referred to hereafter as IMR-32/STAT3-Luc cells.
(§2) For the FACS analysis, 10 nM of the antibodies were used to stain 0.5×10⁶ cells/well of each cell type at 4° C. in PBS (without calcium and magnesium) containing 2% FBS for 30 minutes. IMR-32/STAT3-luc cells were incubated with 1 mg/mL mouse IgG for 30 minutes at 4° C. to block Fc receptors prior to adding the antibodies. To test whether the anti-gp130 antibody binding is specific for gp130 on the IMR-32 cells, antibodies were added to IMR-32/Stat3-luc cells with or without being pre-bound to 1000 nM of recombinant protein of the ecto-domain of human gp130 fused to myc-myc-his tag (hgp130.mmh) for 30 minutes at 25° C. […] Cells were fixed using BD CytoFix™ (Becton Dickinson, #554655) and analyzed on an IQue® (Intellicyt®) Flow Cytometer. Unstained and secondary antibody alone controls were also tested for all cell lines. The results were analyzed using ForeCyt® (IntelliCyt®) software to determine the geometric means of fluorescence for viable cells.

[2] = biological target: T2, full length (FL) human gp130 …; assay: FACS, 10 nM Ab, HEK293/Stat3-luc/gp130-2X Sort cells
From the text: as §1, §2

MFI - Normalized to Unstained Control [1] [ratio]	MFI - Normalized to Unstained Control [2] [ratio]	Binder
7	96	B1
8	159	B2
7	132	B3
6	55	B4
8	45	B5
8	80	B6
5	53	B7
8	74	B8
8	105	B9
6	49	B10
7	107	B11
7	91	B12
6	94	B13
7	75	B14
7	121	B15
8	81	B16
7	92	B17
